Results published in the supplement of paper PMC6379048.

What was measured:
Test in all cases: Kd (EC50 corrected by depletion factor)
[1] = target: TUBB4B (UniProt P68371)
In short: (§1)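 Free RNA oligos (0 nM to 30 μM) were pre-incubated with HEK293-FT lysate (2.5 mg protein/well) for 1 h at 4°C, followed by 30 min at 4°C with the same 5′-amino-C6 oligos coupled to NHS-Sepharose beads. Bound proteins were quantified by label-free LC-MS/MS and normalised to the control. EC50 was derived from a four-parameter log-logistic fit, and Kd was obtained by multiplying EC50 by a protein-dependent depletion factor.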

[2] = target: T1, HNRNPF (UniProt P52597)
T1 sequence: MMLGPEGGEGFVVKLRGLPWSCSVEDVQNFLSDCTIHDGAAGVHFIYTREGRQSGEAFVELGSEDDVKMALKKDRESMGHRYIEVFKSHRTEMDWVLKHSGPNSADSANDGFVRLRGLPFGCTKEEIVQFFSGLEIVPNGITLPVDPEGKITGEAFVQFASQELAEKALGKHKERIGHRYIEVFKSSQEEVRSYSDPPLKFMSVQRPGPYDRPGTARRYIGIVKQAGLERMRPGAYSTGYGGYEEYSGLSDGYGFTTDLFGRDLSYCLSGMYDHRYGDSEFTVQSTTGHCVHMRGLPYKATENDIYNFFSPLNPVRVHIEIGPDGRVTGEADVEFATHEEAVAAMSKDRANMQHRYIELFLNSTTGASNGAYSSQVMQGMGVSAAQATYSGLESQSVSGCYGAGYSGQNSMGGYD
In short: as §1

[3] = target: RPS5 (UniProt P46782)
In short: as §1

[4] = target: MRPL43 (UniProt Q8N983)
In short: as §1

[5] = target: GNB2L1 (UniProt P63244)
In short: as §1

[6] = target: MRPS7 (UniProt Q9Y2R9)
In short: as §1

[7] = target: T2, CSTF2T (UniProt Q9H0L4)
T2 sequence: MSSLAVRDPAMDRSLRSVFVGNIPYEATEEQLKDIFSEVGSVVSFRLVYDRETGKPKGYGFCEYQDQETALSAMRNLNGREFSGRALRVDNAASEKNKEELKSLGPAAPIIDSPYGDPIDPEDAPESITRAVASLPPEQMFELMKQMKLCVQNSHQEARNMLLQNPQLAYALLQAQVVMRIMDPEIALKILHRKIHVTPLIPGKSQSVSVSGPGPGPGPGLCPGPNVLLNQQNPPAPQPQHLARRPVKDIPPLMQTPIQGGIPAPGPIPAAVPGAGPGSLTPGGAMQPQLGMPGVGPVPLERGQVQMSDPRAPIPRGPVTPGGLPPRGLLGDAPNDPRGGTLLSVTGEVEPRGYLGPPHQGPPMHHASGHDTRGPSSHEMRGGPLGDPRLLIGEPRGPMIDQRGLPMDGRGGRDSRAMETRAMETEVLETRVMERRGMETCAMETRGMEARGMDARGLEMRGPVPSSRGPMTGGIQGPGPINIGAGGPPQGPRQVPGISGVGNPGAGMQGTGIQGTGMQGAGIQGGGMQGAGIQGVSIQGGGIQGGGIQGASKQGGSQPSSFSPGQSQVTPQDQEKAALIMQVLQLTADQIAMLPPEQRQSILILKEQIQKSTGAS
In short: as §1

[8] = target: T3, MEX3C (UniProt Q5U5Q3)
T3 sequence: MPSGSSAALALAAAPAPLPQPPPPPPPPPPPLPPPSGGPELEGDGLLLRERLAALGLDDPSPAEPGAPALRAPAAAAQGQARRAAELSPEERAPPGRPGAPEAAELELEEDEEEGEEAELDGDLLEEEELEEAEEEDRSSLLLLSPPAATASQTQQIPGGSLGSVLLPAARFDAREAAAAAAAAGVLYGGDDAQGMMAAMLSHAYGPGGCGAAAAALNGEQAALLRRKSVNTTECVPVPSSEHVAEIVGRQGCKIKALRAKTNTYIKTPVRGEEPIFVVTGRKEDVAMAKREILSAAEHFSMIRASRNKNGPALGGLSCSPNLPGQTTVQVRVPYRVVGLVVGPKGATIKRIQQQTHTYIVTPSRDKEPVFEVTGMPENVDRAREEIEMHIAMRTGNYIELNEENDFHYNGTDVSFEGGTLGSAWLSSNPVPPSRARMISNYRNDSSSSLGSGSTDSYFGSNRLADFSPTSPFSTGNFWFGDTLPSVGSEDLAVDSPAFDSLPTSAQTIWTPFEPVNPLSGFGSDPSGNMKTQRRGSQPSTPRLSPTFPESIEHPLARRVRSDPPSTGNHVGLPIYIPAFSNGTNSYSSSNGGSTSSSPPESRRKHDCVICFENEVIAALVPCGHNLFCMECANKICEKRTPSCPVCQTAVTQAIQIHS
In short: as §1

[9] = target: DAP3 (UniProt P51398)
In short: as §1

[10] = target: T4, GRSF1 (UniProt Q12849)
T4 sequence: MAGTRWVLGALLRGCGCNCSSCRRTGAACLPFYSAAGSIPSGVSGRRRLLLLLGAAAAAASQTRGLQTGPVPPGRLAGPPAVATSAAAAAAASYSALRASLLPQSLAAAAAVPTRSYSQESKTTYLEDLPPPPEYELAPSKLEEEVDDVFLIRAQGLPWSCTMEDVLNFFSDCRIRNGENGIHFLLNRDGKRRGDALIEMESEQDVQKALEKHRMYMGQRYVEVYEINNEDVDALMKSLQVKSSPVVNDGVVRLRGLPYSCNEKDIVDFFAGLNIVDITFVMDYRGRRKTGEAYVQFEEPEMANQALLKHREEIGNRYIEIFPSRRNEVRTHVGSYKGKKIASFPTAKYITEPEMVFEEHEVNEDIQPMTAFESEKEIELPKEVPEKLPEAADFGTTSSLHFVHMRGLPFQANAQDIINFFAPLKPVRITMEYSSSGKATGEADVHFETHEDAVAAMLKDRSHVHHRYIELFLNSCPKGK
In short: as §1

TUBB4B, sequence (P68371 whole entry): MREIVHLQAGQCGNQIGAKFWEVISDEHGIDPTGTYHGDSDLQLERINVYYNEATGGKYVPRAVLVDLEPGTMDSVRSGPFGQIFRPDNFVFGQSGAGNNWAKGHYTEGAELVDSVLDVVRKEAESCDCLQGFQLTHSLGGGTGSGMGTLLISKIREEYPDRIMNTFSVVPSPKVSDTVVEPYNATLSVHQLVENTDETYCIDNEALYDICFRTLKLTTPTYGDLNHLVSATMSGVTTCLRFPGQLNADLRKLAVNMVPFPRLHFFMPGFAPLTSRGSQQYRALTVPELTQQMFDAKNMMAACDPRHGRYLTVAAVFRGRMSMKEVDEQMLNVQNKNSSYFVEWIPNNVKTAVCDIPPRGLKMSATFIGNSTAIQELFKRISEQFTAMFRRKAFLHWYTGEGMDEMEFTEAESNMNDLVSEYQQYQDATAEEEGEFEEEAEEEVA

Sequence AAUAAA has a Kd [1] of 2430 nM and a Kd [2] of 6290 nM.

Work on CUGUCCU yielded a Kd [3] of 146 nM, a Kd [4] of 40.4 nM and a Kd [5] of 808 nM.

In the case of UAUUUAU, the Kd [6] is reported as 29.4 nM, the Kd [7] is reported as 257 nM and the Kd [8] is reported as 339 nM. It also gave a Kd [9] of 37.4 nM and a Kd [10] of 3420 nM.
